From patent publication US20040116355A1 (CYTOVIA, published 2004)
* marks the point of attachment. Ethoxycarbonyl = CCOC(=O)*; CH2F = FC*

Target: T1, rCaspase 3 (purchased from PharMingen) (UniProt P42574 29-277, limits assumed)
T1 sequence (looked up): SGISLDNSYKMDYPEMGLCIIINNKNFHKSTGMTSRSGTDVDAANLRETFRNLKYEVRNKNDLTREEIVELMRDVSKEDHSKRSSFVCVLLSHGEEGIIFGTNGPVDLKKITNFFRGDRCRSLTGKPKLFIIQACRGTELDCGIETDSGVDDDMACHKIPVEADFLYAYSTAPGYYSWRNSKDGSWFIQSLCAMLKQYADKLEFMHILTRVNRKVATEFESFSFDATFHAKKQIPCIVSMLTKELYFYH
Assay: cell-based or functional assay

Row | Binder | Caspase-3 IC50 (fluorometric enzyme assay, cleavage of 10 uM Ac-DEVD-AMC by 2 ng rCaspase 3) [nM]
1 | cyclohexylmethoxycarbonyl-Val-Asp-CH2F [Cyclohexylmethoxycarbonyl-Val-Asp-fmk] | 72
2 | Ethoxycarbonyl-Val-Asp-CH2F (SMILES CCOC(=O)N[C@H](C(=O)N[C@@H](CC(=O)O)C(=O)CF)C(C)C) [Ethoxycarbonyl-Val-Asp-fmk] | 58
